Test results published in article PMC8260353 (Nature, 2021).
Where a chain is given by its changes, count along the chain named. Where two headings read alike, the source gives them in different places.

Tests used:
[1] = target: T1, human immunodeficiency virus-1 (HIV-1) envelope trimer (BG505 DS-SOSIP) (HIV-1 group M subtype A, isolate BG505, UniProt Q2N0S6, stabilised)
[2] = target: T1, human immunodeficiency virus-1 (HIV-1) …; assay: BLI; BG505 DS-SOSIP binding to immobilized VHH9 nanobody; kinetic fit; conditions: both partners purified
[3] = target: T2, bivalent Nb30 (Nb30 fused to human IgG1 Fc) (nanomouse (mouse with camelid VHH genes)); assay: BLI; conditions: both partners purified
T2 construct: also called Nb30 (bivalent)
T2 sequence (heavy, as listed by the source): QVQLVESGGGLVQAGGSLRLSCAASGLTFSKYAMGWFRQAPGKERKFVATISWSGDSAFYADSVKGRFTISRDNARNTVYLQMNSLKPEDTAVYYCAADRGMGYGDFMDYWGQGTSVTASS

[4] = target: T3, Nb12 trimer (three Nb12 units with GGGGS(x3) linkers, fused to human IgG1 Fc) (nanomouse (mouse with camelid VHH genes)); assay: BLI; conditions: both partners purified
T3 construct: also called trivalent Nb12

B1: VHH9-2 (VHH)
VHH: QVKLEESGGGSVQAGGSLRLSCTAPGFTSNSCGMAWYRQAPGKEREFVSSISTDGTTSYADSVKGRFTISKDKAKDTVYLQMNSLKPEDTAMYSCKTYGPYCYFDVWGAGTTVTVSS
- binding result [1]: binds

B2: VHH9-1 (nanobody from nanomouse immunized with BG505 DS-SOSIP) (VHH)
VHH: B1 VHH with Q1E, K3H, E5V, A24T, V113L
- binding result [2]: binds

B3: VHH9-3 (VHH)
VHH: B1 VHH with S117A
- binding result [1]: binds

B4: SARS-CoV RBD fused to the Fc region of human IgG1 (Fc fusion)
chain: not shown
- binding result [3]: binds
- binding result [4]: binds
